Source: PMC7788559

Target: MRN (MRE11-RAD50-NBS1) wild type (Homo sapiens, UniProt P49959;Q92878;O60934 1-708;1-1312;1-754)
Assay: pull-down, immunoblot

MRN (MRE11-RAD50-NBS1) wild type, sequence (P49959 whole entry, chain 1 of 3): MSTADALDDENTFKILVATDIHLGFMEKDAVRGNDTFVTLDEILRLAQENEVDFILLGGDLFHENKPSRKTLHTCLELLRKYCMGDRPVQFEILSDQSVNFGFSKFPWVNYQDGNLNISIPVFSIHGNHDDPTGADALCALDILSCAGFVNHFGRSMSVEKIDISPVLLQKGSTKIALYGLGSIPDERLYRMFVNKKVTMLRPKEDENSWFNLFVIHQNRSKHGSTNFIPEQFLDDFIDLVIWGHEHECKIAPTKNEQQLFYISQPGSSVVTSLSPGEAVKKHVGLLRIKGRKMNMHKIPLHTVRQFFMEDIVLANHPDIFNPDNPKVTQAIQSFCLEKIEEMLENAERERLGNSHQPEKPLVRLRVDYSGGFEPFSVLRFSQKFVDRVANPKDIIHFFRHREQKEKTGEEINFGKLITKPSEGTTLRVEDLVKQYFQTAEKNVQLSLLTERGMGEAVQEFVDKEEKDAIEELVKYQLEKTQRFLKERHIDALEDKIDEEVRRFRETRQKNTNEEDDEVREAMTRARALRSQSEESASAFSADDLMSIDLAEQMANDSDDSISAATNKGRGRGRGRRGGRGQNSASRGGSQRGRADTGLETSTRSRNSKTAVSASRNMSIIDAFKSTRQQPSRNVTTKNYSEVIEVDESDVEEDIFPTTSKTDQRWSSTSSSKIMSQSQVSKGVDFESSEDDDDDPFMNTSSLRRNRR
MRN (MRE11-RAD50-NBS1) wild type, sequence (Q92878 whole entry, chain 2 of 3): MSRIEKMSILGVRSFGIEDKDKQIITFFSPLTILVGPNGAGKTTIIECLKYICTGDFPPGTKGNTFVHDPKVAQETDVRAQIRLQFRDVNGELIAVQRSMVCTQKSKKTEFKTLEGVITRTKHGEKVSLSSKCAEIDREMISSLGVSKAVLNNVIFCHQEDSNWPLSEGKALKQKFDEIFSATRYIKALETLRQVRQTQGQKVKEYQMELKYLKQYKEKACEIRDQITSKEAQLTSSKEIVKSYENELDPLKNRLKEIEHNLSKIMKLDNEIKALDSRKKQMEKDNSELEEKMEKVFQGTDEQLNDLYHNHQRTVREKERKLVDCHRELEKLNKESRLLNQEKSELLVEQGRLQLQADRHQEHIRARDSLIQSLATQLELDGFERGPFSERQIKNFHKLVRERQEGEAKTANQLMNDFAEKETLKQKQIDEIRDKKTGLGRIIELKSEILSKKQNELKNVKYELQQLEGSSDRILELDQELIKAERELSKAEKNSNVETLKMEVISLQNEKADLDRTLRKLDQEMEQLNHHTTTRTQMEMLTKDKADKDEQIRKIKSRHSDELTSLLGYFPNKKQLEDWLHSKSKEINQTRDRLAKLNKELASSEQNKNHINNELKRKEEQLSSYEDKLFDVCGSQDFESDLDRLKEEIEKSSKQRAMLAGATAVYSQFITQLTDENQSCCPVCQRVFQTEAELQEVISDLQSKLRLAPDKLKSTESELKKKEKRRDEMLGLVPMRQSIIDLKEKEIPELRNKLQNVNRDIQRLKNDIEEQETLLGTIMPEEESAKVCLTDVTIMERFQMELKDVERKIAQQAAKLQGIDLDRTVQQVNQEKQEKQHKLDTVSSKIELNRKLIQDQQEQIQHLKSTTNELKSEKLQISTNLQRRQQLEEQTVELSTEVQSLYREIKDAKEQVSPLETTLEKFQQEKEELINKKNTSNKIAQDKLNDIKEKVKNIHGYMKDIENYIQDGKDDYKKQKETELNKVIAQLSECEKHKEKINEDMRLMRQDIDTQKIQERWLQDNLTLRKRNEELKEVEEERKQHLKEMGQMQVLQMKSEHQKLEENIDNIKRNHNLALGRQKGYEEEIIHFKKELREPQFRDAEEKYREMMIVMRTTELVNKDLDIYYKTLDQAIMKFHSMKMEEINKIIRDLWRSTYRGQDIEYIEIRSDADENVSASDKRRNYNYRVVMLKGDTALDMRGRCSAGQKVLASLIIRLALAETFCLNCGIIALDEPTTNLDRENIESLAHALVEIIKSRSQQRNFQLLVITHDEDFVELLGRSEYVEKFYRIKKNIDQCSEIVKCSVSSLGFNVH
MRN (MRE11-RAD50-NBS1) wild type, sequence (O60934 whole entry, chain 3 of 3): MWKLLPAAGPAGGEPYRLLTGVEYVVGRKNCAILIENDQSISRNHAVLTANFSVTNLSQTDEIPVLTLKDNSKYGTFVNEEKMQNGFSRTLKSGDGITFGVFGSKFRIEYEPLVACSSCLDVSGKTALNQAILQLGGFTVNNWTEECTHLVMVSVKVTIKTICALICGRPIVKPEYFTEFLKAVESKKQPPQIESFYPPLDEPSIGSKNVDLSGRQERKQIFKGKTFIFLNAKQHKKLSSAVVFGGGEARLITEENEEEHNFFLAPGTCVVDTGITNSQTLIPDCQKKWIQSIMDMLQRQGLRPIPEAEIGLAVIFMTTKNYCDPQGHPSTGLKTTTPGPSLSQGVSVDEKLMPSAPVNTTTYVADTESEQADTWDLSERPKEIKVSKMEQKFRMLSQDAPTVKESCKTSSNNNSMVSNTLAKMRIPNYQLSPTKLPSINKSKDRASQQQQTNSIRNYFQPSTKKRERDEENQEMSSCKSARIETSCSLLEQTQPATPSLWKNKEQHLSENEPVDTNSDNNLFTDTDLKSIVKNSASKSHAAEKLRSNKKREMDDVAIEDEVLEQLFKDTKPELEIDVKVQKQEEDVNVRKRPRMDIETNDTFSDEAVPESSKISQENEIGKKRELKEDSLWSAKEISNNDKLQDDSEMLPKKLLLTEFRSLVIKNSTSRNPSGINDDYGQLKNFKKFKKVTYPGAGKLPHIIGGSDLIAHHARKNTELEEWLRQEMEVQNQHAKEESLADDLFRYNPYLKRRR

B1: Sj60mer blunt dsDNA (dsDNA)
DNA 1: TTGTAAAACGACGGCCAGTGAATTCATCATCAATAATATACCTTATTTTGGGATCTATGC
DNA 2: GCATAGATCCCAAAATAAGGTATATTATTGATGATGAATTCACTGGCCGTCGTTTTACAA
binding result: binds
